{"source": "patent US20210180049A1", "about": "(CHUGAI SEIYAKU KABUSHIKI KAISHA, priority 2013, published 2021)", "molecules": {"B1": {"name": "humanized SMB0002: heavy chain variable region SEQ ID NO: 85; light chain variable region SEQ ID NO: 86 (antibody, V domains shown)", "VH": "QVQLVQSGAEVKKPGASVKVSCKVSGIDLTNYAMGWVRQPPGKGLEWIGIIGADSSTWYPSWVKGRFTISKDTSKNQVVLTMTNMDPVDTATYYCARGRFVGYTNAFDPWGQGTLVTVSS", "VL": "DIQLTQSPSSLSASVGDRVTITCQSSQSVWNNNYLSWYQQKPGQPPKLLIYDASTLASGVPSRFSGSGSGTDFTLTINSLEAEDAATYYCHGSYANSGWYDNAFGGGTEVVVK"}, "B2": {"name": "PF1: hIL-6R-binding clone prepared as a negative control; heavy chain SEQ ID NO: 50, light chain SEQ ID NO: 51 (antibody, V domains shown)", "VH": "QVQLQESGPGLVKPSETLSLTCAVSGYSISDDHAWSWVRQPPGEGLEWIGYISYSGITNYNPSLKGRVTISRDTSKNQFSLKLSSVTAADTAAYYCARVLARITAMDYWGEGTLVTVSS", "VL": "DIQMTQSPSSLSASVGDSVTITCQASQDISSYLNWYQQKPGKAPELLIYYGSELHSGVPSRFSGSGSGTDFTFTISSLEAEDAATYYCGQGNRLPYTFGQGTKVEIE"}, "B3": {"name": "F02h011/F021003: 6RNMSC1-2_F02 with framework restored to germline; variable regions SEQ ID NO: 95 and 96 (antibody, V domains shown)", "VH": "QVQLVQSGAEVKKPGSSVKVSCKASGGTFSSYAISWVRQAPGQGLEWMGGIIPIFGTANYAQKFQGRVTITADESTSTAYMELSSLRSEDTAVYYCARDAPVVARPRGAFDIWGQGTLVTVSS", "VL": "DIVMTQSPLSLPVTPGEPASISCRSSQSLVHSDGNTYLSWYLQKPGQSPQLLIYEISNRFSGVPDRFSGSGSGTDFTLKISRVEAEDVGVYYCMQATQFPRTFGQGTKVEIK"}, "B4": {"name": "F02h011/F021098: F02h011/F021003 with Lch_Ser56Tyr; variable regions SEQ ID NO: 95 and 97 (antibody, V domains shown)", "VH": "B3 VH", "VL": "B3 VL with S61Y"}, "B5": {"name": "6RNMSC1-3_G02: antibody binding hIL-6R in the presence of ATP; heavy chain SEQ ID NO: 34, light chain SEQ ID NO: 35 (antibody, listed as Homo sapiens, V domains shown)", "VH": "EVQLVQSGGDLVKPGGSLRLSCAASGFTFSNYAMHWVRQAPGKGLEWVAVVSYDGSNKYYADSVKGRFTISRDNSKNTLYLQMNSLRAEDTAVYYCARLVPSSGYPGRFDPWGQGTLVTVSS", "VL": "NIQMTQSPSSLSASVGDRVTITCRASQSISSSLNWYQQIPGKAPKLLIYAASSLQSGVPSRFSGSGSGTDFTLTISSLQPEDFASYYCQQSYSAWTFGQGTKVEIK"}}, "key": {"[1]": {"assay": "SPR (Biacore T200) binding of humanized SMB0002 and its variants to adenosine", "details": "Biacore T200, 25° C.; read-out: KD of humanized SMB0002 toward adenosine", "experimental": "(§1) Binding of humanized SMB0002 to adenosine and AMP was measured and analyzed by a method using Biacore T200 (GE Healthcare). Protein A (Invitrogen) immobilized in an appropriate amount onto a Sensor chip CM5 (GE Healthcare) by the amine coupling method was allowed to capture the antibody of interest, and the interaction with the antigen adenosine, AMP, ADP, or ATP was observed. The running buffer used was 50 mM Tris-HCl, 150 mM NaCl, 0.02% (w/v) Tween 20, pH 7.6, for adenosine and AMP, and 50 mM Tris-HCl, 150 mM NaCl, 0.02% (w/v) Tween 20, 2 mM MgCl2, pH 7.6, for ADP and ATP. All measurements were carried out at 25° C. The antigens were diluted with the running buffer.\n(§2) Then, the running buffer was run at a flow rate of 30 μL/min for five minutes, and dissociation of the antigens from the antibody was observed. Next, 10 mM glycine-HCl, pH 1.5, was added at a flow rate of 30 μL/min for 30 seconds to regenerate the sensor chip. Kinetic parameters such as the association rate constant ka (1/Ms) and the dissociation rate constant kd (l/s) were calculated based on the sensorgrams obtained by the measurements. The dissociation constant KD (M) was calculated from these constants. Each parameter was calculated using Biacore T200 Evaluation Software (GE Healthcare).\n(§3) As a result of the measurements, the affinity of each variant toward adenosine and AMP was calculated as KD value. […]"}, "[2]": {"assay": "SPR (Biacore T200) binding of humanized SMB0002 and its variants to AMP", "details": "Biacore T200, 25° C.; read-out: KD of humanized SMB0002 toward AMP", "experimental": "as §1, §2, §3"}, "[3]": {"assay": "SPR (Biacore T200) binding of humanized SMB0002 to ADP", "details": "Biacore T200, 25° C., 2 mM MgCl2; read-out: KD of humanized SMB0002 toward ADP", "experimental": "as §1, §2"}, "[4]": {"assay": "SPR (Biacore T200) binding of humanized SMB0002 to ATP", "details": "Biacore T200, 25° C., 2 mM MgCl2; read-out: KD of humanized SMB0002 toward ATP", "experimental": "as §1, §2"}, "[5]": {"assay": "competitive phage ELISA with ATP", "assay_type": "binding", "details": "ATP from equal amount up to 10000 times that of the antigen", "experimental": "ATNLSA1-4_D12 and PF1 were each diluted with TBS and subjected to ELISA by the following procedure.\nA StreptaWell 96 microtiter plate (Roche) was coated at room temperature for one hour with 100 μl of TBS containing biotin-labeled antigens (a mixture of 5′-adenosine-PEG-biotin and ATP-PEG-biotin). After the antigens were removed by washing each well of the plate with TBST, the wells were blocked with 250 μl of 2% skim milk/TBS for one hour or more. 2% skim milk/TBS was removed, and then the prepared, purified phages were added to each well. The plate was allowed to stand at room temperature for one hour to allow binding of the antibody-displaying phages to the antigens in each well. […] For the competition of the immobilized antigen with ATP, the plate was allowed to stand at room temperature for one hour. Then, after TBST wash, an HRP-conjugated anti-M13 antibody (Amersham Pharmacia Biotech) diluted with TBS was added to each well. The plate was incubated for one hour. Following TBST wash, the TMB single solution (ZYMED) was added to each well. The chromogenic reaction in the solution of each well was terminated by adding sulfuric acid. Then, the developed color was assessed by measuring absorbance at 450 nm."}, "[6]": {"assay": "SPR (Biacore T200) binding of 6RNMSC1-2_F02 and variants to kynurenine", "details": "for Kd / ka for kynurenine / kd for kynurenine: Biacore T200, 15° C., 5% DMSO", "experimental": "An appropriate amount of protein A (Invitrogen) was immobilized onto Sensor chip CM4 (GE Healthcare) by the amine coupling method. The antibody of interest was captured thereon, and the antigen kynurenine and derivatives thereof were allowed to interact. The running buffer used was 50 mmol/L Tris-HCl, 150 mmol/L NaCl, 0.02% (w/v) Tween 20, 5% DMSO, pH 7.6. All measurements were carried out at 15° C. The antigens were diluted with the running buffer.\nThen, the running buffer was run at a flow rate of 30 μL/min for 60 seconds to observe the dissociation of antigens from the antibody. Kinetic parameters, the association rate constant ka (1/Ms) and the dissociation rate constant kd (l/s), were calculated based on the sensorgrams obtained by the measurements. The dissociation constant KD (M) was calculated from these constants. Each parameter was calculated using Biacore T200 Evaluation Software (GE Healthcare).\n(§4) Meanwhile, the type of sensor chip immobilized with Protein A was changed to Sensor chip Series S CM3 (GE Healthcare) to measure some of the variants. When kynurenine dissociation was too fast to determine the dissociation rate constant, a dissociation constant KD (M) was calculated by analysis of equilibrium values based on the degree of binding response during the interaction with each antigen (association phase). In this case also, Biacore T200 Evaluation Software (GE Healthcare) was used to calculate the parameters.\nas §4\n(§5) When kynurenine dissociation was too fast to determine the dissociation rate constant, the dissociation constant KD (M) was calculated by analysis of equilibrium values based on the degree of binding response when it is interacted with each antigen (association phase). Also in this case, the Biacore T200 Evaluation Software (GE Healthcare) was used to calculate parameters. […] Each variant and its parental antibody F02h011/F021003 were compared in terms of the KD value for kynurenine.\nas §5, with “analyzing” for “analysis of”, “sequence” for “antibody”"}, "[7]": {"biological_target": "T1, human IL-6 receptor (hIL-6R) (Homo sapiens, UniProt P08887)", "T1 sequence (P08887 20-357 limits assumed)": "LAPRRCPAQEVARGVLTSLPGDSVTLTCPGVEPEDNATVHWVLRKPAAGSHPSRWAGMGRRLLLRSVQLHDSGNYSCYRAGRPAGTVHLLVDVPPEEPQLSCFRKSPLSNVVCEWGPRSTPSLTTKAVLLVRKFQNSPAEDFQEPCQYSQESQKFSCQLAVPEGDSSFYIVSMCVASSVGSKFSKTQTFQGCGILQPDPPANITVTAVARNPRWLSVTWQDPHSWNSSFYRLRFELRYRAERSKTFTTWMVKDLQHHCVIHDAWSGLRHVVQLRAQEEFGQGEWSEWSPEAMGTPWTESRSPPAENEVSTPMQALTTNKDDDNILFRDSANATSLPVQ", "assay": "phage ELISA for hIL-6R binding in the presence/absence of small molecule cocktail (SC)", "details": "absorbance at 450 nm", "experimental": "From a single colony of E. coli obtained in (6-1), a phage-containing culture supernatant was collected according to a conventional method (Methods Mol. Biol. (2002) 178, 133-145). […] A StreptaWell 96 microtiter plate (Roche) was coated overnight with 100 μL of TBS containing biotin-labeled hIL-6R. […] After removing 2% skim milk/TBS, purified phages were added to each well of the plate, and the plate was left still at room temperature for one hour to allow antibody-presenting phages to bind to biotin-labeled hIL-6R present in each well in the presence/absence of SC. Each well was washed with TBST or SC/TBST, and HRP-conjugated anti-M13 antibody (Amersham Pharmacia Biotech) diluted with TBS or SC/TBS was added thereto, and the plate was incubated for one hour. After washing with TBST or SC/TBST, the chromogenic reaction of TMB single solution (ZYMED) added in each well was terminated by adding sulfuric acid. Then, the color development was measured by absorbance at 450 nm."}, "[8]": {"biological_target": "T1, human IL-6 receptor (hIL-6R)", "assay": "IgG ELISA for hIL-6R binding under small molecule conditions of Table 12", "details": "IgG 2.5 μg/mL", "experimental": "Three types of obtained antibodies 6RNMSC1-2_F02, 6RNMSC1-3_G02, and GC413 were subjected to ELISA under the nine conditions shown in Table 12. The antigen used was biotin-labeled hIL-6R.\nFirst, a StreptaWell 96 microtiter plate (Roche) was coated with 100 μL of PBS containing biotin-labeled hIL-6R at room temperature for one hour or longer. […] 100 μL of each of the purified IgGs prepared at 2.5 μg/mL using Sample Buffer containing small molecules at the final concentrations shown in Table 12 were added to each well, and the plate was let still at room temperature for one hour to allow each IgG to bind to biotin-labeled hIL-6R present in each well. After washing with Wash Buffer containing small molecules at the final concentrations shown in Table 12, HRP-conjugated anti-human IgG antibody (BIOSOURCE) diluted with Sample Buffer containing the same small molecules was added to each well and the plate was incubated for one hour. After washing with Wash Buffer containing respective small molecules, the chromogenic reaction of TMB single solution (ZYMED) added in each well was terminated by adding sulfuric acid. Then, the color development was measured by absorbance at 450 nm."}}, "note": "Substitutions are numbered along the chain they refer to."}
{"molecule": "B1", "values": [{"measurement": "Kd", "setting": "[1]", "value": 0.0075, "unit": "µM"}, {"measurement": "Kd", "setting": "[2]", "value": 35, "unit": "µM"}, {"measurement": "Kd", "setting": "[3]", "value": 79, "unit": "µM"}, {"measurement": "Kd", "setting": "[4]", "value": 140, "unit": "µM"}]}
{"molecule": "B2", "values": [{"measurement": "binding to biotin-labeled antigen with ATP as competitor", "setting": "[5]", "value": "not detected regardless of the ATP concentration"}]}
{"molecule": "B3", "values": [{"measurement": "kynurenine binding (in words)", "setting": "[6]; Biacore", "value": "retain kynurenine binding"}, {"measurement": "Kd", "setting": "[6]", "value": 110, "unit": "µM"}, {"measurement": "ka for kynurenine", "setting": "[6]", "value": 3664, "unit": "M⁻¹ s⁻¹"}, {"measurement": "kd for kynurenine", "setting": "[6]", "value": 0.40, "unit": "L/s"}, {"measurement": "Tm", "setting": "Tm measurement by DSC", "value": 85.2, "unit": "°C"}]}
{"molecule": "B4", "values": [{"measurement": "Kd", "setting": "[6]", "value": 72, "unit": "µM"}, {"measurement": "ka for kynurenine", "setting": "[6]", "value": 3686, "unit": "M⁻¹ s⁻¹"}, {"measurement": "kd for kynurenine", "setting": "[6]", "value": 0.26, "unit": "L/s"}]}
{"molecule": "B5", "values": [{"measurement": "binding activity to the antigen hIL-6R in the presence of a small molecule mixture", "setting": "[7]", "value": "having binding activity"}, {"measurement": "absorbance under condition 9 (no small molecule) compared to condition 8 (cocktail of all small molecules)", "setting": "[8]; absorbance at 450 nm", "value": "significantly lower"}, {"measurement": "small molecule in whose presence the antibody binds hIL-6R", "setting": "[8]; conditions 1-9 of Table 12, absorbance at 450 nm", "value": "binds to the antigen hIL-6R in the presence of ATP"}]}
